From patent US5874308A, “Compositions and methods for modulating cell proliferation using growth factor-polysaccharide binding fusion proteins” (priority 1996, dated 1999) come the findings set out here.

Entries after “also recorded” stand apart in the source; their conditions may differ.

For one assay, the target named is T1, CBDN1 (Cellulomonas fimi, UniProt P14090).
T1 construct: leader (signal) peptide of C. fimi exoglucanase Cex (N); made in house; host or cells: E. coli JM101 (pTugKN1), purified from culture supernatant
T1 sequence (P14090 33-184): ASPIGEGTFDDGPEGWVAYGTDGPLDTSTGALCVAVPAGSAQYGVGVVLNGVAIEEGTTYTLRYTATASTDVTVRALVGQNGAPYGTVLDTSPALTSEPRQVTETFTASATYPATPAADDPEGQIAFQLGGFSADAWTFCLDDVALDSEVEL
In words: Isothermal titration microcalorimetry of oligosaccharide binding to CBDN1. To be noted: 35° C.; for Kd: 50-mM PBS, pH 7, read-out: Isothermal Titration Microcalorimetry Ka (converted). The text has this: Microcalorimetry was used to measure binding thermodynamics for CBDN1 to a wide range of water-soluble oligosaccharides with the aim of identifying a set of suitable ligands for the affinity partition system. […] For both oligosaccharides, CBDN1 binding is as tight or even tighter than nearly all PEG-based affinity ligands (e.g., Cibacron blue-PEG, Procion red-PEG, dinitrophenyl-PEG, diacetic acid-PEG) currently in use in affinity partition systems.

The next assay deals with T2, N1 (CBDN1) (Cellulomonas fimi, UniProt P14090).
T2 construct: leader (signal) peptide of C. fimi exoglucanase Cex (N); made in house; host or cells: E. coli JM101 (pTugKN1), purified from culture supernatant
T2 sequence (P14090 33-184): T1 sequence (P14090 33-184)
Nature of the assay: N1 binding constants by NMR. To be noted: 35° C.; read-out: NMR Ka (converted).

Assay [1] concerns SLF dependent bone marrow cell line B6SUtA1. Nature of the assay: MTT proliferation assay of SLF-CBD in solution or bound to BMCC. The format is cell-based. As to conditions: for proliferative activity in solution (MTT), compared with control SLF: non-immobilized, absence of an immobilization matrix; for distribution of activity between BMCC and supernatant after Factor Xa cleavage: 1 μg/ml BMCC, Factor Xa added; for effect of presence of BMCC on activity: protein concentration varied; for distribution of activity between BMCC and supernatant: bound to 1 μg/ml BMCC, matrix removed by centrifugation and resuspended; for potency when immobilized on cellulose vs in solution (maximum proliferative response, specific activity): immobilized on cellulose (BMCC). The protocol: Samples of purified SLF-CBD were diluted in H-SFM. […] In experiments where BMCC was used, 50 μl of a BMCC suspension in H-SFM was added to each well, and in experiments where no BMCC was used 50 μl of H-SFM alone was added.
Statistical analysis of data was carried out with regression curve fitting in two iterations using non-linear regression analysis from the GraFit version 3.0 statistical analysis program (Erithacus Software Ltd., Staines, U.K.).

The next assay relates to B6SUtA cells. In words: Activity of SLF-CBD bound to regenerated cellulose coated microtiter plates (MTT). Format: cell-based. The protocol:
A 1% (w/v) solution of cellulose acetate was prepared by adding one gram of cellulose acetate (Kodak Inc.) to 99 ml of acetic acid. One hundred μl of this solution was added to each well of the standard 96 well tissue culture plates used above, and the acetic acid allowed to evaporate. One hundred μl of 50 mM NaOH was then added to each well and left for 20 minutes to regenerate a cellulose surface. The NaOH was then poured out, and the wells rinsed three times with PBS. Three hundred μl of 70% (v/v) ethanol was then added to each well, the plate lid replaced, and the ethanol allowed to evaporate as a sterilization step.
Activity tests were carried out as previously described except that a cellulose acetate derived surface was used to immobilize SLF/CBD instead of BMCC. Twenty μl protein test samples were put into cellulose coated wells. […] Activity was measured after 48 h of culture using the […] with data points collected in quadruplicate. […]
Non-tagged SLF was used as a control. In one set of control experiments, SLF was added to cellulose coated tissue culture wells as before, the surface was seeded with fresh cells three times, and the proliferation measured. […] These surfaces were seeded with cells three times and the activity measured.

Assay [2] in a line: Binding of SLF-CBD to Avicel cellulose during purification. To be noted: affinity chromatography on Avicel. As for the experimental part:
The plasmid pSLF/CBD 1.0 was transformed into E. coli JM101 (Yanisch-Perronet al. (1985) Gene 33: 103-119) for expression. Several colonies were scraped from a plate and used to inoculate a 5 ml test tube of Terrific Broth (Tartof and Hobbs, Bethesda Res. Lab. Focus 9: 12) containing […] kanamycin. This tube was incubated with shaking at 37° C. for four hours and then used to inoculate four flasks containing 500 ml of the same medium at 0.2% volume. These flasks were then incubated at 37° C. with shaking at 250 rpm until a cell culture optical density (OD550) […]. The cells were then induced by the addition of 0.1 mM IPTG and shifted to 30° C. with shaking at 100 rpm for a further eight hours. Cells were then harvested and the periplasmic proteins isolated by osmotic shock (Neu and Heppel (1965) J. Biol. Chem. 240: 3685-3692). Five mg of Avicel microcrystalline cellulose (FMC International, Cork, Ireland) was added to either 10 ml of culture supernatant or 1 ml of periplasmic extract and then removed by centrifugation. SDS-PAGE loading buffer was than added to the Avicel, which was then boiled for two minutes and loaded directly onto a gel for SDS-PAGE analysis (Laemmli, supra.) (FIG. 8A).

Where [3] appears, read: BMCC fixed at 1 μg/ml or 14 μg/ml.

`OC[C@H]1O[C@@H](O[C@H]2[C@H](O)[C@@H](O)[C@H](O[C@H]3[C@H](O)[C@@H](O)[C@H](O[C@H]4[C@H](O)[C@@H](O)[C@H](O[C@H]5[C@H](O)[C@@H](O)[C@H](O[C@H]6[C@H](O)[C@@H](O)C(O)O[C@@H]6CO)O[C@@H]5CO)O[C@@H]4CO)O[C@@H]3CO)O[C@@H]2CO)[C@H](O)[C@@H](O)[C@@H]1O` (stereo partly shown) [Cellohexaose]: at CBDN1, the “Isothermal Titration Microcalorimetry -TΔS°” value was found to be 0.79 ± 0.1 kcal/mol, the “Isothermal Titration Microcalorimetry ΔH°” value is -6.9 ± 0.2 kcal/mol and the Kd was 0.0397 mM. Besides, the Kd at N1 (CBDN1) was 19.6 µM.
For `OC[C@H]1O[C@@H](O[C@H]2[C@H](O)[C@@H](O)[C@H](O[C@H]3[C@H](O)[C@@H](O)[C@H](O[C@H]4[C@H](O)[C@@H](O)[C@H](O[C@H]5[C@H](O)[C@@H](O)C(O)O[C@@H]5CO)O[C@@H]4CO)O[C@@H]3CO)O[C@@H]2CO)[C@H](O)[C@@H](O)[C@@H]1O` (stereo partly shown) [Cellopentaose], on CBDN1, the “Isothermal Titration Microcalorimetry -TΔS°” value is recorded as 0.86 ± 0.1 kcal/mol, the “Isothermal Titration Microcalorimetry ΔH°” value was -6.8 ± 0.2 kcal/mol and the Kd is 0.0559 mM. The Kd at N1 (CBDN1) was 29.4 µM.
On to `OC[C@H]1O[C@@H](O[C@H]2[C@H](O)[C@@H](O)[C@H](O[C@H]3[C@H](O)[C@@H](O)[C@H](O[C@H]4[C@H](O)[C@@H](O)C(O)O[C@@H]4CO)O[C@@H]3CO)O[C@@H]2CO)[C@H](O)[C@@H](O)[C@@H]1O` (stereo partly shown) [Cellotetraose], for which, at CBDN1, the “Isothermal Titration Microcalorimetry -TΔS°” value is recorded as 1.4 ± 0.1 kcal/mol, the “Isothermal Titration Microcalorimetry ΔH°” value is recorded as -6.4 ± 0.2 kcal/mol and the Kd was 0.244 mM. The Kd at N1 (CBDN1) is 238 µM.
On to `OC[C@H]1O[C@@H](O[C@H]2[C@H](O)[C@@H](O)[C@H](O[C@H]3[C@H](O)[C@@H](O)C(O)O[C@@H]3CO)O[C@@H]2CO)[C@H](O)[C@@H](O)[C@@H]1O` (stereo partly shown) [Cellotriose], for which, at N1 (CBDN1), the Kd is 5560 µM.

B1: CBD: recombinant cellulose binding domain of Cex, negative control (protein)
chain: SGPAGCQVLWGVNQWNTGFTANVTVKNTSSAPVDGWTLTFSFPSGQQVTQAWSSTVTQSGSAVTVRNAPWNGSIPAGGTAQFGFNGSHTGTNAAPTAFSLNGTPCTVG
With B1, in assay [1], the “proliferative activity in solution (MTT), compared with control SLF” value is “did not stimulate the proliferation”.

B2: SLF-CBD: fusion protein: extracellular domain of murine steel factor linked to the cellulose binding domain of Cellulomonas fimi exoglucanase Cex (protein)
chain: KEICGNPVTDNVKDITKLVANLPNDYMITLNYVAGMDVLPSHCWLRDMVIQLSLSLTTLLDKFSNISEGLSNYSIIDKLGKIVDDLVLCMEENAPKNIKESPKRPETRSFTPEEFFSIFNRSIDAFKDFMVASDTSDCVLSSTLGPEKDSRVSVTKPFMLPPVAASSLRNDSSSSNRKAAKAPEDSGLQPTPTPTTPTPTPTTPTPTPTSGPAGCQVLWGVNQWNTGFTANVTVKNTSSAPVDGWTLTFSFPSGQQVTQAWSSTVTQSGSAVTVRNAPWNGSIPAGGTAQFGFNGSHTGTNAAPTAFSLNGTPCTVG
For the molecule B2, in the assay with B6SUtA cells (cellulose coated microtiter plate), the “fraction bound to reconstituted cellulose surface (activity on plate vs supernatant)” value is given as “essentially all”. In addition, the “proliferative activity after repeated use of the same surface” value in the assay on B6SUtA cells (three consecutive rounds of 48 h cell culture) is “no loss in proliferative activity; also recorded: no loss of proliferative activity; also recorded: without loss of growth-stimulating activity”. The “binding of the fusion protein to cellulose” value in assay [2] is “strong and difficult to reverse”. Also, the “neutralization of activity by anti-SLF neutralizing polyclonal antibodies” value in assay [1] (0.6 nM SLF-CBD, in solution) is “neutralized”. Besides, in assay [1], the “distribution of activity between BMCC and supernatant after Factor Xa cleavage” value was “the bulk of the activity was found in the supernatant”; the “distribution of activity between BMCC and supernatant” value was “the bulk of the activity was associated with the BMCC; also recorded: most of the activity was associated with the BMCC particles”; the “potency when immobilized on cellulose vs in solution (maximum proliferative response, specific activity)” value is reported as “significantly more potent; also recorded: to a greater extent than non-immobilized steel factor”; the “proliferative activity in solution (MTT), compared with control SLF” value is reported as “similar”. Moreover, the “distribution of activity between BMCC and supernatant after Factor Xa cleavage” value in assay [1] (listed as SLF/CBD) is on record as “the activity was no longer associated with the BMCC”. Also, in assay [1] (BMCC constant at 1 μg/ml (1.22 cm^2/ml)), the “SLF-CBD concentration at maximum stimulatory activity” value is reported as “about 2000 pM”. Further, in assay [1] (setting [3]), the “ED50 (protein concentration for half maximal response) in presence vs absence of BMCC” value was “decrease”, the “total cell proliferation in presence vs absence of BMCC” value is “increase” and the “effect of presence of BMCC on activity” value is reported as “clearly more active in the presence of BMCC”. Besides, in assay [1] (SLF-CBD held constant at 1500 pM, BMCC varied), the “BMCC concentration at maximum activity” value was found to be 44 µg/mL. For the same molecule, in assay [1] (soluble form), the “ED50 of soluble fusion protein vs control protein” value is listed as “identical” and the “maximum cell density generated vs control protein” value was “not quite as great”.

B3: control SLF: recombinant extracellular domain of murine steel factor without affinity tag (R&D systems), positive control (protein)
chain: KEICGNPVTDNVKDITKLVANLPNDYMITLNYVAGMDVLPSHCWLRDMVIQLSLSLTTLLDKFSNISEGLSNYSIIDKLGKIVDDLVLCMEENAPKNIKESPKRPETRSFTPEEFFSIFNRSIDAFKDFMVASDTSDCVLSSTLGPEKDSRVSVTKPFMLPPVAASSLRNDSSSSNRKAAKAPEDSGLQ
On to B3, for which the “effect of presence of BMCC on activity” value in assay [1] (setting [3]) is “no effect”. Besides, in assay [1], the “distribution of activity between BMCC and supernatant” value is “most of the activity was in the supernatant”; the “potency when immobilized on cellulose vs in solution (maximum proliferative response, specific activity)” value was “not observed”. Moreover, the “distribution of activity between BMCC and supernatant” value in assay [1] (listed as non-tagged SLF control) is reported as “most of the activity was associated with the supematant”.
